Tests used:
[1] = Continuous spectrophotometric PYO demethylation assay (specific activity and kinetics of PodA); format: biochemical
Procedure: Specific activity and kinetics of PodA. To determine specific activity and kinetic parameters of PodA for PYO, a continuous spectrophotometric assay monitoring the absorbance of PYO (690 nm) was utilized. Briefly, assays were performed at 25° C. in 100 μL reaction volumes in 96-well plates and reactions were monitored at 690 nm over 10 min. Reaction mixtures contained Phosphate buffer (50 mM, pH 6.0), ethylene glycol (1%, v/v), protein (3 μM) and substrate (for specific activity, 100 μM, for kinetics, varying). Data were acquired using the SpectraMax® M3 Microplate Reader (Molecular Devices) using the Soft Max Pro software every 10 s over 10 min. Path lengths for each well were calculated using Soft Max Pro endpoint readings and slopes were corrected for path lengths of 1 cm.
Specific activity was calculated from the slope of the linear range of (ΔOD690 min^−1) using Beer's Law (A=εcl) with a path length of 1 cm and the molar extinction coefficient of PYO (4,130 M^−1 cm^−1). Equation was solved for c, giving specific activity in nmol min^−1 mg^−1 of PodA. For kinetic parameters, graphs of initial velocity (μM s^−1) versus substrate concentration (μM) were plotted using Prism v8 (GraphPad). The Michaelis-Menten kinetics model was used to determine Km and Vmax. The turnover number (kcat) was determined using the following equation: Vmax=kcat[E], where [E] was the concentration of PodA added. All spectrophotometric assays mentioned above were completed thrice, each in technical triplicate with a representative data set shown. Error bars represent standard deviation as calculated by Prism v8 (GraphPad). Standard deviation for kcat and Kcat KM^−1 was calculated using standard formulas for propagation of error.

[2] = Protein yield of PodA variants purified from inclusion bodies of overexpression culture
Procedure: Protein overproduction and purification of soluble and inclusion body fractions. Plasmids coding for proteins of interest were transformed into E. coli BL21 […]. […]. Cultures were grown at 37° C. with shaking to an optical density of 0.4 (OD600 nm) and plasmid expression was induced with IPTG (50 μM) and shaken overnight at 16° C. Cells were harvested by centrifugation at 5,000×g for 10 min in a Beckman Coulter Avanti J-20 XOI refrigerated centrifuge using a JLA-8.1000 rotor at 4° C. Cell pellets were stored at −80° C. until used.
For purification of PodA from inclusion bodies, the pellets remaining following lysis and centrifugation at 40,000×g were resuspended in 20 mL of detergent buffer [50 mM HEPES (pH 7.5) and 1% Triton-X (v/v)] using a Bio-gen PRO200 cell homogenizer (PRO Scientific). Sample was spun for 15 min at 40,000×g at 4° C. in a Beckman Coulter Avanti centrifuge with a JA-25.50 rotor. Supernatant was discarded and the remaining cell pellet was resuspended in 5 mL of buffer [50 mM HEPES (pH 7.5), 500 mM NaCl] using a cell homogenizer, supplemented with lysozyme (200 μg mL^−1), and incubated for 10 min. Volume was increased to 20 mL with HEPES (50 mM, pH 7) and sample was spun for 40,000×g at 4° C. for 15 min. Supernatant was discarded and pellet was homogenized in 10 mL of denaturing buffer 50 mM HEPES (pH 7.5), 500 mM NaCl, and 8M urea) and incubating rocking overnight. The sample was spun at for 40,000×g at 25° C. for 30 min and supernatant was incubated with 1 mL HisPur Ni-NTA resin (Thermo Fisher Scientific) on a rocking platform for 10 min. Beads were allowed to settle without shaking, supernatant was discarded, and resin was pipetted into glass gravity columns. Resin was washed with 15 mL of denaturing buffer, followed by an elution with denaturing buffer supplemented with imidazole (500 mM). Fractions were analyzed by SDS-PAGE and those containing protein were combined into SnakeSkin 3.5 K MWCO dialysis tubing (Thermo Fisher Scientific). Urea was slowly dialyzed out in HEPES (50 mM, pH 7.5) and NaCl (500 mM) by lowing urea concentrations by 1 M increments. Each step was dialyzed at RT for 30 min. Protein was dialyzed in HEPES (50 mM, pH 7.5), NaCl (500 mM), and imidazole (20 mM) overnight at 4° C. The following day, protein was cleaved for 3 h at 25° C. with TEV protease (1:50 mg:mg ratio of TEV to PodA). The sample was applied to a HisPur gravity column and cleaved protein in the flow thru was confirmed by SDS-PAGE. Cleaved PodA protein was then dialyzed for storage for 3 h at 4° C. in HEPES (50 mM pH 7.5), NaCl (250 mM) and finally in HEPES (50 mM, pH 7.5), NaCl (100 mM), and glycerol (20%, v/v). Protein concentration was established on a NanoDrop™ using the extinction coefficient and MW of each protein. Protein was drop frozen in LN2 and stored at −80° C. until use.

[3] = test system: Pseudomonas aeruginosa aggregate biofilms; details: previous experiments, succinate-minimal medium, 27 hours; cited from earlier work
Pseudomonas aeruginosa = experiment: Crystal violet biofilm assay; format: cell-based; details: 24 h incubation, protein added from the beginning
Procedure: Crystal violet assay. Pseudomonas aeruginosa grown overnight in LB were inoculated (1.5%, v/v) and grown for 24 h at 37° C. in 96-well round bottom plates in minimal medium (100 μL) with arginine (40 mM) as the sole carbon source. PodA was added with cells simultaneously and was present during growth and biofilm development. Planktonic cells were removed and attached cells were quantified with crystal violet staining (125 μL. 0.1% w/v), followed by washes with water and de-staining with an acetic acid (30%, v/v) mixture in water. Crystal violet was measured using a SpectraMax® M3 Microplate Reader (Molecular Devices) at an absorbance of 550 nm. Details of procedure were published previously (28)[43].

[4] = pH 6, 1% ethylene glycol, PodA 3 μM, substrate PYO

B1: WT PodA41-162: Truncated wild-type pyocyanin demethylase from Mycobacterium fortuitum (MFORT_14352) lacking N-terminal membrane helix, SEQ ID NO: 3 (protein)
chain: VTMTLDVKNDQVAKHDFGKPGMDVGDMDIFSDILSVDGKQVGYDGGACFFTNVTPDNPMTYCELTIHLDAGEIFARSLTPHTLAPFTMAITGGTGEYANSKGELTVSGVATPDEKYELKLTK
What does the source list for B1?
pH of optimal activity ([1]; buffers pH 5.5-10.0, PodA 3 μM, PYO 100 μM): 6; Effect of salts (NaCl and KCl) on activity ([1]; cystic fibrosis sputum range, 66 mM Na+, 15 mM K+): did not inhibit or enhance; Km [1, 4]: 372 µM; catalytic efficiency [1, 4]: 4.74±0.24×10^2 M^−1 s^−1; kcat [1, 4]: 0.176 ± 0.003 s⁻¹; Effect of slight increase in viscosity (ethylene glycol or glycerol 1% v/v) on activity ([1]; pH 6, PodA 3 μM, PYO 100 μM): enhanced; catalytic efficiency ([1]; protein from soluble fraction): 1.05±0.093×10^2 M^−1 s^−1; catalytic efficiency ([1]; protein purified from inclusion bodies, denatured and refolded): 1.14±0.25×10^2 M^−1 s^−1; protein yields ([2]; per L of bacterial culture, typical): ~0.3 mg/L; Yield ([2]; purified from inclusion bodies, per L of E. coli overexpression culture): 0.33 mg/L^−1; aggregate development in ABBA [3]: smaller aggregates in anoxic regions of the agar; biofilm attachment (crystal violet) (Pseudomonas aeruginosa): biofilm attachment defect
